# Target: T1, Soluble human HER3 extracellular domain fused to Streptavidin Binding Protein (SBP) (human, UniProt P21860 20-643)
# T1 construct: Order of the parts follows the printed name SBP-HER3 and is not otherwise stated; Used as HEK293 supernatant captured on streptavidin plates; also called SBP-HER3
# Test: ELISA, SBP-HER3 ECD captured on streptavidin plate; antibody concentration read from HER3 binding
# Method: Soluble human HER3 extracellular domain fused to Streptavidin Binding Protein (SBP) was captured on a sreptavidine plate. […] For the standard coating, SBP-HER3 containing HEK293 supernatant was diluted (between 1:15 and 1:40) and incubated overnight at 2-80 C (25 μl per well). Intensive washing of the microtiter plate is necessary to remove remaining unbound SBP-HER3.
# Antibodies according to the invention antibody were tested either undiluted or using a 12-step-dilution. 12.5 μl per well of each sample was incubated for 90 min at room temperature.
row,hu_HER3-ECD-ELISA c(µg/ml),Binder
1,583 µg/mL,"Mab 205.10.1 (antibody, V domains shown, Humanized anti-HER3 antibody; Only variable domains are tied to it) VH: QVQLVQSGAEVKKPGASVKVSCKASGYTFRSSYISWVRQAPGQGLEWMGWIYAGTGSPSYNQKLQGRVTMTTDTSTSTAYMELRSLRSDDTAVYYCARHRDYYSNSLTYWGQGTLVTVSS VL: DIVMTQSPDSLAVSLGERATINCKSSQSLLNSGNQKNYLTWYQQKPGQPPKLLIYWASTRESGVPDRFSGSGSGTDFTLTISSLQAEDVAVYYCQSDYSYPYTFGQGTKLEIK"
2,505 µg/mL,"Mab 205.10.3 (antibody, V domains shown, Humanized anti-HER3 antibody; Only variable domains are tied to it) VH: QVQLVQSGAEVKKPGASVKVSCKASGYTFRSSYISWVRQAPGQGLEWMGWIYAGTGSPSYNQKLQGRVTMTTDTSTSTAYMELRSLRSDDTAVYYCARHRDYYSNSLTYWGQGTLVTVSS VL: DIVMTQSPDSLAVSLGERATINCKSSQSLLNSGNQKNYLTWYQQKPGQPPKLLIYWASTRESGVPDRFSGSGSGTDFTLTISSLQAEDVSIYYCQSDYSYPYTFGQGTKLEIK"

# Reference: patent US20140227255A1 (Hoffmann-La Roche, published 2014)
